Our source for the Kd values is patent publication US20020058323A1, “Monkey urotensin II” (priority 2000, published 2002).

The target of this test is T1, Macaca fascicularis Urotensin II receptor (Macaca mulatta, UniProt Q8HYC3).
T1 construct: expressed in transfected cells
T1 sequence (Q8HYC3 1-389): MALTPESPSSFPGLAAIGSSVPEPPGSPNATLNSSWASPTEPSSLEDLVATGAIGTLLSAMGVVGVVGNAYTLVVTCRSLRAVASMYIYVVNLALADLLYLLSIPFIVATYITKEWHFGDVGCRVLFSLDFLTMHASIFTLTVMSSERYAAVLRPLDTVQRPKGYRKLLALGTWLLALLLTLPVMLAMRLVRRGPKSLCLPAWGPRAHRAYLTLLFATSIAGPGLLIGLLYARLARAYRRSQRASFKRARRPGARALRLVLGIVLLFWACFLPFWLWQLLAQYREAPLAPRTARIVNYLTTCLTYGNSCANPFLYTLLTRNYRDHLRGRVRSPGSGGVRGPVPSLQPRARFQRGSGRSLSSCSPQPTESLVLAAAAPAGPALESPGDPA
The test can be described thus: Radioligand binding with Scatchard plot analysis on a stable HEK 293 cell line transfected with the Urotensin II receptor. The settings on record: radiolabeled ligand, single set of binding sites, transfected HEK 293 cells. The text has this: 1. A stable cell line was developed from HEK 293 cells transfected with mammalian pCDN vector of the Macaca fascicularis Urotensin II receptor.

B1: Macaca fascicularis Urotensin II: Macaca fascicularis Urotensin II polypeptide of the invention (SEQ ID NO:2, 125 amino acids), ligand of a G-protein coupled receptor (protein)
chain: MYKLASCCLLFIGFLNPLFSLPLLDSGEVSLQLSAPHEDAPLTSEELERASLLQILPEMLLGAERGDSLRKADSSTNIFNPRGNLRKFQDFSGQDPDILLSHLLARIRKPYKKRETPDCFWKYCV
modifications: MACACA FASCICULARIS
For orientation: Kd means the equilibrium constant for the complex coming apart. High values mean lower affinity, low ones higher affinity. For B1, binding was put at a Kd of 0.214 ± 0.065 nM.
